Two molecules from patent publication US20210179698A1 (AstraZeneca / MedImmune, published 2021) can be followed below.

Residue numbers refer to the chain shown, from its start.

One experiment deals with rat α-syn (rat, UniProt P37377 1-140). The experiment in a line: direct binding HTRF assay. A general note: TR-FRET usually uses a lanthanide donor and a delayed reading to cut background.
Experiment [1] addresses disease relevant pathological forms of human α-syn in Parkinson's disease brain tissue (human, UniProt P37840 1-140). Nature of the experiment: immunohistochemistry of Parkinson's disease brain tissue.
A further experiment deals with T1, 1-60 (human, UniProt P37840).
T1 construct: residues 1-60, N-terminal region only; coated on ELISA wells; also called α-syn truncate 1-60; aa1-60
The experiment in a line: ELISA on coated α-syn truncates, anti-human IgG-HRP detection. (In general: In an ELISA, binding on a coated surface is turned into a signal by an enzyme label.)

In another experiment the target is T2, 1-95 (human, UniProt P37840).
T2 construct: residues 1-95, N-terminal and NAC regions; coated on ELISA wells; also called α-syn truncate 1-95; aa1-95
Described as above.

A further experiment concerns the target T3, NCAP (human, UniProt P37840-2).
T3 construct: alternatively spliced form missing amino acids 103-129; coated on ELISA wells; also called alternatively spliced form of α-syn missing amino acids 103-129
Described as above.

The target in experiment [2] is native, endogenously expressed intracellular human α-syn in SH-SY5Y neuroblastoma cells (human, UniProt P37840 1-140). Nature of the experiment: flow cytometry on fixed, permeabilised SH-SY5Y cells, anti-human IgG-FITC. (A flow cytometer gives signals particle by particle.)
Protocol: After extensive washes, bound antibody was detected by incubation with an anti-human or anti-mouse IgG-FITC secondary antibody. Following further washes the cells were analyzed with a FACS Canto II apparatus (Becton Dickinson, Franklin Lakes, N.J.) and data analysis was performed using FlowJo Software (Tree Star, Ashland, Oreg.).
Another experiment has as its target T4, 61-140 (human, UniProt P37840).
T4 construct: residues 61-140, NAC plus C-terminal region; coated on ELISA wells; also called α-syn truncate 61-140; aa61-140
The experiment in a line: ELISA on coated α-syn truncates (1 µg/ml coat, 1 µg/ml antibody), anti-human IgG-HRP detection.

The next experiment addresses T5, 96-140 (human, UniProt P37840).
T5 construct: residues 96-140, C-terminal region only; coated on ELISA wells; also called α-syn truncate 96-140; C-terminal region only
The description is as above.

A further experiment concerns the target T6, ΔNAC (human, UniProt P37840).
T6 construct: NAC region deleted; coated on ELISA wells; also called ANAC; α-syn with NAC region deleted
Described as above.

Experiment [3] concerns the target human alpha-synuclein (recombinant) (human, UniProt P37840 1-140). Described as above.
Protocol: (§1) Briefly, one microgram per milliliter of each truncate was coated to a microtitre well overnight at 4° C. […] Following 1 h incubation and washing the bound antibody was detected by addition of an anti-human IgG conjugated to either HRP or Eu³⁺. Subsequent to incubation and washing, the appropriate detection substrate was added (TMB or DELFIA Enhancer solution respectively) and the plate read on a microtitre plate reader.
Experiment [4] deals with T7, human beta-synuclein (recombinant) (human, UniProt Q16143 1-134).
T7 construct: also called β-syn; β-synuclein
Nature of the experiment: HTRF epitope competition: unlabelled synuclein titrated against biotinylated human α-syn for binding to aslo0543.
Protocol: (§2) IC₅₀ values were determined by curve fitting the data to a four parameter logistic equation using PRISM 6® software (Graphpad). […] For the negative control, the antibody test sample was replaced with an isotype control antibody or buffer only.

The target of experiment [5] is T8, human gamma-synuclein (recombinant) (human, UniProt O76070 1-127).
T8 construct: also called γ-syn; γ-synuclein
The description is as above.
Protocol: as §2

The target of another experiment is aggregated human α-syn (human, UniProt P37840 1-140). The experiment in a line: DELFIA pair-wise capture ELISA: mouse IgG1 version of the antibody as capture, human IgG1 TM version of the same antibody as detection, anti-human IgG-Eu.
For experiment [6], the target named is T7, human beta-synuclein (recombinant). The experiment in a line: HTRF epitope competition: unlabelled synuclein titrated against biotinylated human α-syn for binding to aslo0452 ngl-3.
Protocol: as §2
Experiment [7] addresses T8, human gamma-synuclein (recombinant). Described as above.
Protocol: as §2

Protocol for 1-60: as §1
Protocol for 1-95: as §1
Protocol for 61-140: as §1
Protocol for 96-140: as §1
Protocol for NCAP: as §1
Protocol for aggregated human α-syn: Subsequent to incubation and washing, the appropriate detection substrate was added (TMB or DELFIA Enhancer solution respectively) and the plate read on a microtitre plate reader.
Protocol for ΔNAC: as §1

B1: aslo0543 (antibody, human IgG1, lambda, V domains shown)
VH: not shown
VL: QAVLTQPASLSASPGASASLTCTLRSSGDFSRYRIYWYQQKPGSPPQYLLRYKSDADKHQGSGVPSRFSGSKDASANAGILLISGLQSEDEADYYCMVWSSGAWYFGGGTKLTVLG
notes: also called aslo0543 IgG
B1: the binding result with rat α-syn is “binds”; in [1], “binds”; in the experiment with 1-60, “no binding (tested: 1 µg/ml (single concentration))”; with 1-95, “no binding (tested: 1 µg/ml (single concentration))”; with NCAP, “no binding (tested: 1 µg/ml (single concentration))”; in experiment [2], “binds”. In addition, the binding result is reported as “binds” with 61-140; “binds” with 96-140; “binds” in the experiment with ΔNAC; “binds” in experiment [3]; “no binding” in experiment [4]; “no binding” in experiment [5]. For the same molecule, the binding result with aggregated human α-syn is listed as “binds”.

B2: aslo0452 ngl-3 (antibody, human IgG1, lambda, V domains shown)
VH: EVQLLESGGGLVQPGGSLRLSCAASGFTFSSYAMSWVRQAPGKGLEWVSSISHLGGSTYYADSVKGRFTISRDNSKNTLYLQMNSLRAEDTAVYYCAGGANHGKYYYGMDKWGQGTTVTVSS
VL: B1 VL with S27G, G28A, D29P, F30L, S31P, R32K, S100D, S101H, A103V
notes: also called aslo0452 ngl-3 IgG; aslo0452-ngl3-hIgG1TM
With B2, the binding result is “no binding (tested: 1 µg/ml (single concentration))” in the experiment with 1-60; “binds” with 96-140; “binds” with ΔNAC; “no binding” in [6]; “no binding” in experiment [7].
